Values belong to the binder of their own block, whether it stands above or below them.
How the values were obtained:
Details in all cases: both partners purified
Mcm2 = molecular target: T1, Mcm2 (budding yeast, UniProt P29469 1-868); assay: pull-down; Cdt1-His-SUMO fragments held on Ni-NTA magnetic beads, Mcm2 or Mcm6 in solution; 10 μg of each protein, buffer B (25 mM Hepes-KOH pH 7.6, 0.02% NP-40, 10% glycerol, 0.1 M K glutamate), 60 min at 4 °C; Coomassie
T1 construct: Mcm2, subunit of the budding yeast MCM (Mcm2-7), expressed as an individual subunit; source: E. coli, purified
T1 sequence (looked up): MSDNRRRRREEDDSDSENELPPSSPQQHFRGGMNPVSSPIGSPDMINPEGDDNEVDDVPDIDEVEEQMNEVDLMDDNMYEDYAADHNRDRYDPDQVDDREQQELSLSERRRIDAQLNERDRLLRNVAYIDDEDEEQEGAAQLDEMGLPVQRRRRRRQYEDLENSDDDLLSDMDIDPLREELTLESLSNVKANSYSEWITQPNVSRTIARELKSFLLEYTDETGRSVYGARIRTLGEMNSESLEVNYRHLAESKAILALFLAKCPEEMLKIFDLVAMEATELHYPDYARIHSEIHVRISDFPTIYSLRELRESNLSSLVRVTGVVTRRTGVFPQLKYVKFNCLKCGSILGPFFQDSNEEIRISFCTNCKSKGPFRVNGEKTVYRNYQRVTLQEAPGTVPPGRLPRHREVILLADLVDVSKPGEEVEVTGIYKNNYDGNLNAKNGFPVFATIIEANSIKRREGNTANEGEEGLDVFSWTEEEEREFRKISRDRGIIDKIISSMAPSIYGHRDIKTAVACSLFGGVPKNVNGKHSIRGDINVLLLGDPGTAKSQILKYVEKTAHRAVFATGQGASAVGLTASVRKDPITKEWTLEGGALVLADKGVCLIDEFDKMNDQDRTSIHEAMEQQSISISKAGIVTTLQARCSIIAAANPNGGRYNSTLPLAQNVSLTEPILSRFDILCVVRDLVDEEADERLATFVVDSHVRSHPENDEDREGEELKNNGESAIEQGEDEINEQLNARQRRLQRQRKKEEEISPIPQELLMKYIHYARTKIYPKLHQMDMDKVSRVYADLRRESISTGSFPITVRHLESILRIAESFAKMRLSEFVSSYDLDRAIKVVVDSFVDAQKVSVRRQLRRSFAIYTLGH

Mcm6 [1] = molecular target: T2, Mcm6 (budding yeast, UniProt P53091 1-1017); assay: as above
T2 construct: Mcm6, subunit of the budding yeast MCM (Mcm2-7), expressed as an individual subunit; called Mcm6 fl and the full-length protein; also called Mcm6 fl; full-length Mcm6; source: E. coli, purified

Mcm6 [2] = molecular target: T2, Mcm6; assay: co-IP; purified Mcm2-7 subunits (0.5 μM) individually incubated with purified Cdt1 (0.5 μM) or buffer, room temperature 60 min, buffer A/2 mM 2-mercaptoethanol; immunoprecipitation with polyclonal anti-Cdt1 antibody on protein A sepharose, 2 h at 4 °C; SDS-PAGE, Coomassie

T2 sequence (P53091 whole entry): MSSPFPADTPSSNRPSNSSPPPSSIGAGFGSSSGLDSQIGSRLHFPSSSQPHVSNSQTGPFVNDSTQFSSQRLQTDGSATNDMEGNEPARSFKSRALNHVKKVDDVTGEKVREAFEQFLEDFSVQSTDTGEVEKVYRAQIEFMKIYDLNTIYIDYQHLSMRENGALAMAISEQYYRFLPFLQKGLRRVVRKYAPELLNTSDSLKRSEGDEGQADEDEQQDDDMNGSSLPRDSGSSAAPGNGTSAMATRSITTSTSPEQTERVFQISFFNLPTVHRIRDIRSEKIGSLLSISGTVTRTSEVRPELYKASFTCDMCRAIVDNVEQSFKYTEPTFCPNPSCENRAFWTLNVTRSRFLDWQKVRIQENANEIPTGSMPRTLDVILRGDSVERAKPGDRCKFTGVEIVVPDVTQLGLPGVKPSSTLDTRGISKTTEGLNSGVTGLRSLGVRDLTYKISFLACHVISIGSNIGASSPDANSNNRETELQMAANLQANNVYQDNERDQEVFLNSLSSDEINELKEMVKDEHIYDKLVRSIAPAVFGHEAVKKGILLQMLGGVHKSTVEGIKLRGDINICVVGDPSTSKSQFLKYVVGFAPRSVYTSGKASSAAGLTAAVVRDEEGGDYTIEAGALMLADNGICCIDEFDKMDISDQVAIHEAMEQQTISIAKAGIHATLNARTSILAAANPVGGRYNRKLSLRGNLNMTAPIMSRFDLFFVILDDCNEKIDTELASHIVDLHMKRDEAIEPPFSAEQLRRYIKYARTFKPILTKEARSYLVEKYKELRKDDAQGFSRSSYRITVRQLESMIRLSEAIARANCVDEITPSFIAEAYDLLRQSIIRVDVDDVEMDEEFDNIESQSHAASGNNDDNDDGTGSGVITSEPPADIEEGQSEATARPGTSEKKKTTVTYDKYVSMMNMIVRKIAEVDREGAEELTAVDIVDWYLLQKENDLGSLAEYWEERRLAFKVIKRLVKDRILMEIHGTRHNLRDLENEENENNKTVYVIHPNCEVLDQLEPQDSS

binding result (Mcm2): binds | binding result (Mcm6 [1]): binds
B1: Cdt1 fragment 271–496 fused to His-SUMO (domain or fragment, S. cerevisiae, UniProt P47112 271-496, looked up)
chain: SSKGEGTIANHLLEQQIKAFPKVAQQYYPRELSILRLQDAMKFVKELFTVCETVLSLNALSRSTGVPPELHVLLPQISSMMKRKIVQDDILKLLTIWSDAYVVELNSRGELTMNLPKRDNLTTLTNKSRTLAFVERAESWYQQVIASKDEIMTDVPAFKINKRRSSSNSKTVLSSKVQTKSSNANALNNSRYLANSKENFMYKEKMPDSQANLMDRLRERERRSAA
notes: source: His-SUMO fusion

binding result (Mcm6 [2]): binds
B2: Cdt1 (natural protein, S. cerevisiae, UniProt P47112 1-604, looked up)
chain: MSGTANSRRKEVLRVPVIDLNRVSDEEQLLPVVRAILLQHDTFLLKNYANKAVLDALLAGLTTKDLPDTSQGFDANFTGTLPLEDDVWLEQYIFDTDPQLRFDRKCRNESLCSIYSRLFKLGLFFAQLCVKSVVSSAELQDCISTSHYATKLTRYFNDNGSTHDGADAGATVLPTGDDFQYLFERDYVTFLPTGVLTIFPCAKAIRYKPSTMATTDNSWVSIDEPDCLLFHTGTLLARWSQGMHTTSPLQIDPRANIVSLTIWPPLTTPISSKGEGTIANHLLEQQIKAFPKVAQQYYPRELSILRLQDAMKFVKELFTVCETVLSLNALSRSTGVPPELHVLLPQISSMMKRKIVQDDILKLLTIWSDAYVVELNSRGELTMNLPKRDNLTTLTNKSRTLAFVERAESWYQQVIASKDEIMTDVPAFKINKRRSSSNSKTVLSSKVQTKSSNANALNNSRYLANSKENFMYKEKMPDSQANLMDRLRERERRSAALLSQRQKRYQQFLAMKMTQVFDILFSLTRGQPYTETYLSSLIVDSLQDSNNPIGTKEASEILAGLQGILPMDISVHQVDGGLKVYRWNSLDKNRFSKLLQIHKSKQQD
notes: Cdt1, S. cerevisiae; also called Cdt1 WT; wild-type Cdt1; source: recombinant, purified

binding result (Mcm2): binds | binding result (Mcm6 [1]): binds
B3: Cdt1 fragment 495–604 fused to His-SUMO (domain or fragment, S. cerevisiae, UniProt P47112 495-604, looked up)
chain: AALLSQRQKRYQQFLAMKMTQVFDILFSLTRGQPYTETYLSSLIVDSLQDSNNPIGTKEASEILAGLQGILPMDISVHQVDGGLKVYRWNSLDKNRFSKLLQIHKSKQQD
notes: assigned by the order of description; The crystallised protein had the tag removed; also called CTD; source: His-SUMO fusion; E. coli is told for the crystallised fragment of the same limits

binding result (Mcm2): binds | binding result (Mcm6 [1]): binds
B4: Cdt1-MC fused to His-SUMO (domain or fragment, S. cerevisiae, UniProt P47112 272-604, looked up)
chain: SKGEGTIANHLLEQQIKAFPKVAQQYYPRELSILRLQDAMKFVKELFTVCETVLSLNALSRSTGVPPELHVLLPQISSMMKRKIVQDDILKLLTIWSDAYVVELNSRGELTMNLPKRDNLTTLTNKSRTLAFVERAESWYQQVIASKDEIMTDVPAFKINKRRSSSNSKTVLSSKVQTKSSNANALNNSRYLANSKENFMYKEKMPDSQANLMDRLRERERRSAALLSQRQKRYQQFLAMKMTQVFDILFSLTRGQPYTETYLSSLIVDSLQDSNNPIGTKEASEILAGLQGILPMDISVHQVDGGLKVYRWNSLDKNRFSKLLQIHKSKQQD
notes: source: His-SUMO fusion
